The source of these data is PMC4196864.

In this assay the target is paclitaxel-stabilized microtubules assembled from purified porcine brain tubulin (porcine) (UniProt P02550). Nature of the assay: co-sedimentation.

In turn, “6xHis/mCherry-tagged XMAP4 phosphomimetic mutant (T758E/T762E) (natural protein)” came in with a fold lower band intensity in MT pellets than the T758A/T762A mutant of 1.4 fold.
